Measured values as given in patent US12006519B2, “Polymerase mutants and use with 3′-OH unblocked reversible terminators” (Agilent Technologies, Inc., priority 2021, dated 2024).
Changes are numbered by the printed parent chain. Names and notes keep the numbering of the source. “Also recorded” adds a separate entry of the source.

What was measured:
Type in all cases: biochemical
LTA-2 = assay: Template-independent incorporation of LTA-2, LTU-2, LTG-2, LTC-2 to priming strands
Procedure: The template-independent DNA synthesis reactions employed 7.5 U TdT (Promega) or 180 nM (3×over primer) Pfu26 (D141A/E143A/A486L/Y546H/K477W/L409Y) or Pfu48 (D141A/E143A/A486R/Y546H/K477W/L409Y). Varying concentrations of dATP were added to 2 μM (TdT) or 60 nM (Pfu) T7 FOR primer (6′Fam […]) (SEQ ID NO:6) in duplicate reactions containing 1×TdT buffer with CoCl2(Promega) or 1×ThermoPol buffer (NEB). Reactions were incubated for 30 min. at 37° C. (TdT) or 60° C. (Pfu), and then inactivated with heat (TdT; 10 min. at 70° C.) or EDTA (1 ul 500 uM EDTA). Reaction products were exposed to UV using a Stratalinker (15-watt bulbs, […], 10 min). Reactions were diluted in water (TdT, 1:333; Pfu, 1:10) and 1 μl (TdT) or 0.5 μl (Pfu) aliquots were brought up to 10 μl with HiDI/LIZ 120 Size Standard. Products were heated at 95° C. for 5 min., cooled on ice for 2 min., and then analyzed on an ABI 3500 capillary electrophoresis system ([…] capillary, filter set #5, assay=GE5 LIZ120).
In this example, primer extension was carried out with LTA-2 (FIG. 1F) as a Rp+Sp racemic mixture of α-thiotriphosphate, using the conditions described in Example 7.
In further experiments, single-base extension reactions (10 ul) were performed with an equimolar mixture (3 uM each) of two single-stranded oligommcleotides:
Both were labeled with Fam but distinguishable by their lengths using capillary electrophoresis. Primer extension reactions were performed using the following three Pfu mutants at a concentration of 18 nM polymerase: • Pfu10: Pfu polymerase with D141A/E143A/A486L/Y546H/K477W mutations (SEQ ID NO:2) • Pfu26: Pfu polymerase with D141A/E143A/A486L/Y546H/K477W/L409Y mutations (SEQ ID NO:4) • Pfu48: Pfu polymerase with D141A/E143A/A486R/Y546H/K477W/L409Y mutations (SEQ ID NO:5) The extension reactions also employed individual αS-modified LTs in Rp+Sp racemic mixture (namely, LTA-2, LTU-2, LTG-2, and LTC-2) at final concentrations of 5 uM. LTU-2, LTG-2, and LTC-2 are all C7 or C5-hydroxymethyl-a-tert-butyl-2-nitrobenzyl modified reversible terminators like LTA-2, with uracil, guanine, and cytosine in place of adenine. […] Reactions were incubated, stopped, UV-treated, and analyzed as described in Example 7.
(§1) Primer extensions were carried out in duplicate 25 ul reactions containing 7.5 U calf thymus TdT, 1×Promega TdT buffer (with CoCl2), varying concentrations of LTA-1 (100 uM, 50 uM, 10 uM, 5 uM, or 1 uM), and either 2 uM (FIG. 11A to 11C) or 80 nM (FIG. 11D to 11F) of a priming strand (Fam-labeled T7 F primer (6Fam […]), SEQ ID NO:8). Controls were performed without the addition of a polymerase. Primer extensions were also carried out in reactions containing the Pfu26 mutant polymerase, 60 nM of the priming strand, and various concentrations (10 μM or 5 μM or 1 μM) of LTA-1 or LTA-2.

LTA-1 = assay: Template-independent incorporation of LTA-1 to a priming strand
Procedure: This example tested the addition of a 3′-OH unblocked reversible terminator (LTA-1, shown in FIG. 1E, or LTA-2, shown in FIG. 1F) to the 3′ end of a single-stranded priming strand. The extension reaction was performed with 2 uM or 80 nM of a priming strand and varying concentrations (100/50/10/5/1 μM) of the reversible terminator. The performance of the Pfu26 polymerase was compared to TdT polymerase.
as §1
Reactions were incubated at 37° C. for 30 min., and then heat-killed for 10 min. at 70° C. Reaction products were split in half, and one-half was treated with UV as described in Example 7. Reactions were then diluted 1:333 (2 uM primer) or 1:13 (80 nM primer) in water, and 0.5 ul portions were analyzed by capillary electrophoresis using the conditions provided in Example 7.

Lightning Terminators [1] = assay: Plate-based assay, incorporation of Lightning Terminators by control extracts; details: control extracts, FIG. 6, FIGS. 7A-7B
Procedure: In this example, additional mutant polymerases were derived from Pfu polymerase. To generate the mutants, eighty-seven codons in the Pfu pol B gene were saturated using the QuikChange Lightning Mutagenesis kit and oligonucleotides containing “NDT” codons to create R, N, D, C, G, H, I, L, F, S, Y, and V substitutions with equal frequency. In some cases, mutants missing from NDT libraries were prepared in a separate QuikChange reaction with an equimolar mixture of mutagenic oligos encoding the remaining mutations (A, T, K, Q, E, P, […], W). Thirty-two clones were randomly selected from each QuikChange library (with the exception of T267, Y403, Y410, I475, G499 and K675 libraries which generated fewer transformants). Bacterial lysates were prepared and screened for incorporation of LTA and LTC using a plate-based assay with immobilized primer-templates. A limited number of mutants were also screened for utilization of LTG and LTU (similar trends; data not shown). After washing and UV cleavage (to minimize dye quenching effects), plates were read and fluorescent signals compared to Pfu controls. The following table identifies four mutant Pfu polymerases that served as controls, which were given the arbitrary names Pfu5, Pfu1, and Pfu2, along with Pfu10 (which is discussed above).
Selected lysates, based on screening results, were submitted for sequencing, and an amino acid identification was made based on the selections. […] As shown in Example 3, K477W benefits sequencing by increasing the fraction of full-length reads.

Lightning Terminators [2] = assay: Sequencing-by-synthesis with Lightning Terminators (87 cycles); parameters: ARL (87 cycles) / Lead + Lag / Leading / Lagging: unit not given here; details: alternative polymerases (D141A/E143A), same protein concentrations (0.02 ug/uL in cycle 1 and 0.002 ug/uL in cycles 2-n)
Procedure: This section generally describes how the present mutant polymerases were used for sequencing-by-synthesis, and how their performance in sequencing was measured. Sequencing was performed on a breadboard instrument, essentially as described in Hertzog D, et al., “A high-performance, low-cost approach to next-generation sequencing”, BioOptics World. 2011 Issue November/December 2011.
In this example, mutations were introduced into the DNA polymerase of SEQ ID NO: 12 (Therminator) in an attempt to improve its capability in sequencing with 3′-OH unblocked terminators. Such mutations to Thermococcus sp. 9° N DNA polymerase are disclosed in U.S. Pat. Nos. 9,273,352; 9,677,059; 9,765,309; U.S. Pat. App. Publication No. 20160032377. The following table summarizes sequencing metrics with Lightning Terminators.
As used in this example and those that follow, “Lead+Lag” refers to dephasing errors in Sequencing by Synthesis technology caused by either reading the next base signal (Lead) or reading the previous base signal (Lag) relative to current base signals. Such errors may arise because of imperfect incoporation of reversible terminators by the polymerase.
In this example, mutant polymerases were created by introducing certain mutations (D141A/E143A/A485L) which are present in Therminator. The three mutations were introduced at the equivalent positions in JDF3 (Thermococcus sp. JDF3) and Pfu (Pyrococcus furisosus) DNA polymerases. The new mutant polymerases were then evaluated for their performance in sequencing with Lightning Terminators, as described above.

B1: TdT: commercially available preparation of calf thymus terminal deoxynucleotidyl transferase (Promega) (protein, UniProt P06526 1-509, looked up)
DNA nucleotidylexotransferase: MDPLCTASSGPRKKRPRQVGASMASPPHDIKFQNLVLFILEKKMGTTRRNFLMELARRKGFRVENELSDSVTHIVAENNSGSEVLEWLQVQNIRASSQLELLDVSWLIESMGAGKPVEITGKHQLVVRTDYSATPNPGFQKTPPLAVKKISQYACQRKTTLNNYNHIFTDAFEILAENSEFKENEVSYVTFMRAASVLKSLPFTIISMKDTEGIPCLGDKVKCIIEEIIEDGESSEVKAVLNDERYQSFKLFTSVFGVGLKTSEKWFRMGFRSLSKIMSDKTLKFTKMQKAGFLYYEDLVSCVTRAEAEAVGVLVKEAVWAFLPDAFVTMTGGFRRGKKIGHDVDFLITSPGSAEDEEQLLPKVINLWEKKGLLLYYDLVESTFEKFKLPSRQVDTLDHFQKCFLILKLHHQRVDSSKSNQQEGKTWKAIRVDLVMCPYENRAFALLGWTGSRQFERDIRRYATHERKMMLDNHALYDKTKRVFLKAESEEEIFAHLGLDYIEPWERNA
Question: With B1 as the molecule, how does the “Template-independent incorporation of LTA-2 (in words)” value (LTA-2; single-stranded priming strand) read?
Answer: did not incorporate the LTA-2 terminator as efficiently as dATP; also recorded: failed to incorporate LTA-2

Question: And the “Template-independent incorporation of LTA-1 (in words)” value (LTA-1)?
Answer: incorporates LTA-1 much more efficiently than the more highly substituted LTA-2

Question: And the “Termination efficiency with LTA-1” value (LTA-1)?
Answer: poor

Question: And the “Bases incorporated in a single synthesis cycle” value (LTA-1; LTA-1, 80 nM primer)?
Answer: > 3 bases

Question: And the “Bases incorporated in a single synthesis cycle” value (LTA-1; LTA-1, 2 uM primer)?
Answer: 3 bases

B2: Pfu1: Pfu DNA polymerase with D141A/E143A/A486L (protein, UniProt P61875 1-775, looked up, variant D141A E143A A486L)
DNA polymerase: MILDVDYITEEGKPVIRLFKKENGKFKIEHDRTFRPYIYALLRDDSKIEEVKKITGERHGKIVRIVDVEKVEKKFLGKPITVWKLYLEHPQDVPTIREKVREHPAVVDIFEYDIPFAKRYLIDKGLIPMEGEEELKILAFAIATLYHEGEEFGKGPIIMISYADENEAKVITWKNIDLPYVEVVSSEREMIKRFLRIIREKDPDIIVTYNGDSFDFPYLAKRAEKLGIKLTIGRDGSEPKMQRIGDMTAVEVKGRIHFDLYHVITRTINLPTYTLEAVYEAIFGKPKEKVYADEIAKAWESGENLERVAKYSMEDAKATYELGKEFLPMEIQLSRLVGQPLWDVSRSSTGNLVEWFLLRKAYERNEVAPNKPSEEEYQRRLRESYTGGFVKEPEKGLWENIVYLDFRALYPSIIITHNVSPDTLNLEGCKNYDIAPQVGHKFCKDIPGFIPSLLGHLLEERQKIKTKMKETQDPIEKILLDYRQKLIKLLANSFYGYYGYAKARWYCKECAESVTAWGRKYIELVWKELEEKFGFKVLYIDTDGLYATIPGGESEEIKKKALEFVKYINSKLPGLLELEYEGFYKRGFFVTKKRYAVIDEEGKVITRGLEIVRRDWSEIAKETQARVLETILKHGDVEEAVRIVKEVIQKLANYEIPPEKLAIYEQITRPLHEYKAIGPHVAVAKKLAAKGVKIKPGMVIGYIVLRGDGPISNRAILAEEYDPKKHKYDAEYYIENQVLPAVLRILEGFGYRKEDLRYQKTRQVGLTSWLNIKKS
Question: B2 was tested. Which “Utilization of Lightning Terminators (in words)” value (Lightning Terminators [1]) did it give?
Answer: could utilize Lightning Terminators

Question: What about the “% reads >85” value (Lightning Terminators [2]) of the same molecule?
Answer: 9.9%

Question: What about the “ARL (87 cycles)” value (Lightning Terminators [2]) of the same molecule?
Answer: 54.9

Question: What about the “Lead + Lag” value (Lightning Terminators [2]) of the same molecule?
Answer: 2.1

B3: Pfu48: Pfu D141A/E143A/A486R/Y546H/K477W/L409Y, SEQ ID NO:5 (protein)
chain: B2 DNA polymerase with L409Y, K477W, L486R, Y546H
modifications: Mutant of Pyrococcus furiosus Polymerase
Question: For B3, which “Template-independent incorporation of LTA-2, LTU-2, LTG-2 and LTC-2 (in words)” value (LTA-2; 18 nM polymerase, 5 uM terminators, CE2 and T7 oligonucleotides) is on record?
Answer: superior to Calf thymus Terminal Transferase (TdT)
